In paper PMC3089955:

Assays:
[1] = target: DENV-2 NS1 N130Q with carboxy-terminal hexa-histidine tag (Dengue virus serotype 2 (DENV-2), strain 16681); test: non-reducing SDS-PAGE with Western blot
[2] = target: T1, DENV-2 NS1 wild type without hexa-histidine tag (Dengue virus serotype 2 (DENV-2), strain 16681), P29990; test: SEC; settings: remark: other sources report otherwise
T1 chain: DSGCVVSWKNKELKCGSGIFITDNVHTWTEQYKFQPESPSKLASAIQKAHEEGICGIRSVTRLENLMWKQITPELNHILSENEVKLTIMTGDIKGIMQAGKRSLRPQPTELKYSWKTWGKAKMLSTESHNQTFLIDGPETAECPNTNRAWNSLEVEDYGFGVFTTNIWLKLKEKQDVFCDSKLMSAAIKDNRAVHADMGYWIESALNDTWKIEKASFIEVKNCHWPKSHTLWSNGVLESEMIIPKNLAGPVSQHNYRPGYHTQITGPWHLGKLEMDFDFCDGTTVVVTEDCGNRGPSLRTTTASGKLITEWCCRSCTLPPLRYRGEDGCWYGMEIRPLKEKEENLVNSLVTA

DENV-2 NS1 N130Q with carboxy-terminal hexa-histidine tag (natural protein)
stoichiometry N [1]: 2

B1: DENV-2 NS1 wild type without hexa-histidine tag, P29990 776-1127 (natural protein)
chain: DSGCVVSWKNKELKCGSGIFITDNVHTWTEQYKFQPESPSKLASAIQKAHEEGICGIRSVTRLENLMWKQITPELNHILSENEVKLTIMTGDIKGIMQAGKRSLRPQPTELKYSWKTWGKAKMLSTESHNQTFLIDGPETAECPNTNRAWNSLEVEDYGFGVFTTNIWLKLKEKQDVFCDSKLMSAAIKDNRAVHADMGYWIESALNDTWKIEKASFIEVKNCHWPKSHTLWSNGVLESEMIIPKNLAGPVSQHNYRPGYHTQITGPWHLGKLEMDFDFCDGTTVVVTEDCGNRGPSLRTTTASGKLITEWCCRSCTLPPLRYRGEDGCWYGMEIRPLKEKEENLVNSLVTA
stoichiometry N [2]: 6
